B1: anti-WEEV E2/E3E2 single-domain antibody WF4 (VHH)
VHH: DVQLQASGGGLVQAGGSLRLSCAVSDNTTSLNGMGYYRGPPGKQREFVAYARNNGAPKYADSVMGRFTISVDNSKATVYLQMNNLGPEDTALYYCYAPDRWHTYWAGGTQVTVSS
notes: also called Bt-WF4
B2: anti-WEEV E2/E3E2 single-domain antibody WH11 (VHH)
VHH: EVQLQASGGGLVQAGGSLRLTCVASGLTFVNYALDWYRQAPGKERELVAGMWSDGVAYYGDFVKGRFTMSRDNAKNMVYLQMNSLEPEDTAVYSCAARSRPTTQYDYWGQGTQVTVSS
notes: also called Bt-WH11
B3: anti-WEEV E2/E3E2 single-domain antibody WB9 (VHH)
VHH: DVQLQASGGGLVQAGGSLRLSCATSGISVSNSDMGWYRQGPGKQRELVARNSRAGTTNYLDSVKGRFTISRDNAKNMVFLQMNSLKLEDTAVYYCNTNPINRWNIWGQGAQVTVSS
notes: also called Bt-WB9
B4: anti-WEEV E2/E3E2 single-domain antibody WD11f (VHH)
VHH: EVQLQASGGGLVQSGGSLRLSCAGSGGTESSYRMAWFRQAPGTERVFVARVSDGGGSILYADSAKGRFTISRDNGKNTIHLQMFSLKPEDTAVYFCAAAFSWMPPSTVAADYEYWGQGTQVTVSS
notes: also called Bt-WD11f
B5: anti-WEEV E2/E3E2 single-domain antibody WE10 (VHH)
VHH: DVQLQASGGGLVQAGGSLRLSCVASGLTFVNYAIDWYRQAPGKEREVVAGMWNDGVAYYGDFVKGRFTIARDNAKNTVYLQMNNLKPEDTAVYFCGARSRPNLQYDYWGQGTQVTVSS
notes: also called Bt-WE10
B6: anti-WEEV E2/E3E2 single-domain antibody WC10 (VHH)
VHH: DVQLQASGGGLVEAGGSLRLSCTTSGISVRNSDMGWYRQGPGKQRELIARSSRGGATNYLDSVTGRFTISRDNIKNTVFLQMNSLKPEDTAVYYCNTNPINHWNVWGQGTQVTVSS
notes: also called Bt-WC10

biological target: T1, Recombinant WEEV glycoprotein (E2/E3E2) (Western equine encephalitis virus, …, UniProt P13897); test: SPR; ProteOn XPR36; […] (20 µg/mL in 10 mM sodium acetate pH 5.0); […]; conditions: both partners purified
T1 construct: source: bought: IBT Bioservices

B1 and B2 are within 1.5-fold of each other in Kd: 24 nM for the first, 22 nM for the second.

Compared with B3, B4 is 2.8-fold higher in Kd: 2.6 nM for the first, 7.2 nM for the second.

B5 and B6 are within 1.5-fold of each other in Kd: 12 nM for the first, 8.5 nM for the second.

First: B1
Second: B2
The koff of the first is 2.2-fold lower: 0.0015 s⁻¹ for the first, 0.0033 s⁻¹ for the second.

Compared with B3, B4 is 180-fold higher in koff: 0.0029 s⁻¹ for the first, 0.53 s⁻¹ for the second.

Going from B5 to B6, the koff rises from 0.00083 s⁻¹ to 0.85 s⁻¹ (1000-fold).

Going from B1 to B2, the kon rises from 63000 M⁻¹ s⁻¹ to 150000 M⁻¹ s⁻¹ (2.4-fold).

Compared with B3, B4 is 66-fold higher in kon: 1.1e+06 M⁻¹ s⁻¹ for the first, 7.3e+07 M⁻¹ s⁻¹ for the second.

Compared with B5, B6 is 1400-fold higher in kon: 70000 M⁻¹ s⁻¹ for the first, 1e+08 M⁻¹ s⁻¹ for the second.

From publication PMC6698954 (Antibodies, 2018)
